Results published in publication PMC2902579.

Key:
PKR dsRBD (p20) [1] = biological target: T1, PKR dsRBD (p20) (UniProt P19525 1-184); assay: EMSA
PKR dsRBD (p20) [2] = biological target: T1, PKR dsRBD (p20); assay: nuclease footprinting

T1 sequence (P19525 1-184): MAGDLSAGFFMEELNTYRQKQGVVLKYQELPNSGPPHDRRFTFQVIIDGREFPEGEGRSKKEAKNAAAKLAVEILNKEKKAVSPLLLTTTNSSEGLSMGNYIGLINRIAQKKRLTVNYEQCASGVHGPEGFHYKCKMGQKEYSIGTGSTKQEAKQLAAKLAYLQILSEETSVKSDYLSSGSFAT

Row | Binder | binding result (PKR dsRBD (p20) [1]) | binding result (PKR dsRBD (p20) [2])
1 | HCV IRES domains III-IV (131-388) (structured_RNA) RNA: GGGAGAGCCAUAGUGGUCUGCGGAACCGGUGAGUACACCGGAAUUGCCAGGACGACCGGGUCCUUUCUUGGAUCAACCCGCUCAAUGCCUGGAGAUUUGGGCGUGCCCCCGCGAGACUGCUAGCCGAGUAGUGUUGGGUCGCGAAAGGCCUUGUGGUACUGCCUGAUAGGGUGCUUGCGAGUGCCCCGGGAGGUCUCGUAGACCGUGCACCAUGAGCACGAAUCCUAAACCUCAAAGAAAAACCAAAGGGCGCGCCGC | binds | –
2 | HCV IRES domain II (39-119) (structured_RNA) RNA: GGACUCCCCUGUGAGGAACUACUGUCUUCACGCAGAAAGCGUCUAGCCAUGGCGUUAGUAUGAGUGUCGUGCAGCCUCCAGGA | – | binds
